PMC5130228

Biological target: GST-tagged Cdc42, nucleotide-free (human) (UniProt P60953)
Test: pull-down

UniProt P60953, sequence (P60953 whole entry): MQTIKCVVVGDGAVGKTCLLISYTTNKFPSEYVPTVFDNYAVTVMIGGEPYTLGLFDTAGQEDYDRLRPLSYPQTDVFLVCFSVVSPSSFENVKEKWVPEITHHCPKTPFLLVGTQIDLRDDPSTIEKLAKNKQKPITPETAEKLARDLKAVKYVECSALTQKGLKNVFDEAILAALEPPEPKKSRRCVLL

## MBP-Map residues 37–203 (from UniProt P0AE18 37-203) (domain or fragment)
  stoichiometry N: 1
